Reference: patent US20220025010A1 (ANTAG THERAPEUTICS, published 2022)
Where two headings read alike, the source gives them in different places. *1 amine or outer side, *2 acyl side, *3 side chain or, on linkers, in order; H or OH if unused. Where no end group is shown, it is not given here. Side-chain parts run from the residue outwards. [ ]: non-standard residue; d: D form. The star is where a group is joined. C18 diacid = O=C(O)CCCCCCCCCCCCCCCCC(=O)*; C16 diacid = O=C(O)CCCCCCCCCCCCCCC(=O)*; γGlu = O=C(O)[C@H](CCC(=O)[*:2])N[*:1]; pGlu = O=C1CC[C@@H](C(=O)O)N1; AEEA = NCCOCCOCC(=O)O

Tests used:
Assay in all cases: cell-based or functional assay
[1] = molecular target: T1, human GIP receptor (human, UniProt P48546 22-466)
T1 sequence (looked up): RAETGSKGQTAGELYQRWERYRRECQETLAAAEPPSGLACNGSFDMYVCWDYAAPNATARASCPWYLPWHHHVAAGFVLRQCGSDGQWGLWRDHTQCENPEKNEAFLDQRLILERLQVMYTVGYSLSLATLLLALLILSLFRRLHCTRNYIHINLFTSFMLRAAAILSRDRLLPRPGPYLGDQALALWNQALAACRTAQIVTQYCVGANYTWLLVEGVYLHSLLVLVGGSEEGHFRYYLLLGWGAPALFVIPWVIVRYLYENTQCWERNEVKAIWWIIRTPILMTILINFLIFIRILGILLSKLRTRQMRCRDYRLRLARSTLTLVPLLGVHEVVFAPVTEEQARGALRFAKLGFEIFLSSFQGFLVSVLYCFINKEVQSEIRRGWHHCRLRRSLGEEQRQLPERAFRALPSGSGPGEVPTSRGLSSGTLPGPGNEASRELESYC

[2] = molecular target: T1, human GIP receptor; remark: listed apart in the source
[3] = molecular target: T1, human GIP receptor; remark: listed apart in the source
[4] = molecular target: T1, human GIP receptor; remark: listed apart in the source
[5] = molecular target: GLP1 receptor (UniProt P43220 24-463, limits assumed)
[6] = molecular target: glucagon receptor (UniProt P47871 26-477, limits assumed)
glucagon receptor, sequence (P47871 26-477 limits assumed): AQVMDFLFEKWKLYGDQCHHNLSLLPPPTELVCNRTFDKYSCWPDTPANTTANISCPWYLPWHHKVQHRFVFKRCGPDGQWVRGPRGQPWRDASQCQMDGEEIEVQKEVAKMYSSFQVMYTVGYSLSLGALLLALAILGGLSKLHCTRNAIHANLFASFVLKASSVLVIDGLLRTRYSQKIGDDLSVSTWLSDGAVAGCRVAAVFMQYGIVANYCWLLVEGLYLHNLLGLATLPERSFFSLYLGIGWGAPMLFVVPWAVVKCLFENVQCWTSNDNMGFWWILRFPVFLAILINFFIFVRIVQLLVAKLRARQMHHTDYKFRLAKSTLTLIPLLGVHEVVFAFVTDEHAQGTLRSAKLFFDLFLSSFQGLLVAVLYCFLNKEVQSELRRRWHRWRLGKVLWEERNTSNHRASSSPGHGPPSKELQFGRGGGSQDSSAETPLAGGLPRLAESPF

B1: AT390 (peptide)
peptide: [pGlu]GTFISDYSIAMDRIK(C16 diacid)QQDFVNWLLAQR-NH2
cAMP antagonism IC50 (finer than Table 1B) [1]: 0.8 nM
CisBio cAMP agonism % Efficacy [2]: 4%
CisBio cAMP antagonism % inhib [2]: 81%
CisBio cAMP antagonism IC50 [2]: 15.9 nM
CisBio cAMP antagonism pIC50 [2]: 7.8
DiscoveRx cAMP antagonism % inhib [2]: 100%
DiscoveRx cAMP antagonism IC50 [2]: 1 nM
DiscoveRx cAMP antagonism log IC50 [2]: -9.1 log M

B2: AT382 (peptide)
peptide: [pGlu]GTFISDYSIAMDRIK([AEEA-AEEA-AEEA-γGlu-C18 diacid])QQDFVNWLLAQR-NH2
cAMP antagonism IC50 (finer than Table 1B) [1]: 1.8 nM
CisBio cAMP agonism % Efficacy [2]: 0%
CisBio cAMP antagonism % inhib [2]: 83%
CisBio cAMP antagonism IC50 [2]: 25.1 nM
CisBio cAMP antagonism pIC50 [2]: 7.6
DiscoveRx cAMP antagonism % inhib [2]: 100%
DiscoveRx cAMP antagonism IC50 [2]: 2 nM
DiscoveRx cAMP antagonism log IC50 [2]: -8.7 log M
CisBio cAMP antagonism % inhib [3]: 83%
CisBio cAMP antagonism IC50 [3]: 25.1 nM
cAMP antagonism % inhib [3]: 100%
cAMP antagonism IC50 [3]: 2 nM

B3: AT353 (peptide)
peptide: FISDYSIAMDKIK(C16 diacid)QQDFVNWLLAQK-NH2
modifications: N-terminus assumed
SMILES: CC[C@H](C)[C@H](NC(=O)[C@H](CO)NC(=O)[C@H](Cc1ccc(O)cc1)NC(=O)[C@H](CC(=O)O)NC(=O)[C@H](CO)NC(=O)[C@@H](NC(=O)[C@@H](N)Cc1ccccc1)[C@@H](C)CC)C(=O)N[C@@H](C)C(=O)N[C@@H](CCSC)C(=O)N[C@@H](CC(=O)O)C(=O)N[C@@H](CCCCN)C(=O)N[C@H](C(=O)N[C@@H](CCCCNC(=O)CCCCCCCCCCCCCCC(=O)O)C(=O)N[C@@H](CCC(N)=O)C(=O)N[C@@H](CCC(N)=O)C(=O)N[C@@H](CC(=O)O)C(=O)N[C@@H](Cc1ccccc1)C(=O)N[C@H](C(=O)N[C@@H](CC(N)=O)C(=O)N[C@@H](Cc1c[nH]c2ccccc12)C(=O)N[C@@H](CC(C)C)C(=O)N[C@@H](CC(C)C)C(=O)N[C@@H](C)C(=O)N[C@@H](CCC(N)=O)C(=O)N[C@@H](CCCCN)C(N)=O)C(C)C)[C@@H](C)CC
cAMP antagonism % inhib [4]: 100%
cAMP antagonism IC50 [4]: 9 nM
cAMP antagonism log IC50 [4]: -8.1 log M
CisBio cAMP agonism % Efficacy [2]: 0%
CisBio cAMP antagonism % inhib [2]: 90%
CisBio cAMP antagonism IC50 [2]: 25.1 nM
CisBio cAMP antagonism pIC50 [2]: 7.6
cAMP antagonism % inhib [5]: 43%
cAMP antagonism IC50 [5]: 169 nM
cAMP antagonism index [5]: 44
cAMP antagonism log IC50 [5]: -6.8 log M
CisBio cAMP antagonism % inhib [3]: 90%
CisBio cAMP antagonism IC50 [3]: 25.1 nM
cAMP antagonism % inhib [3]: 100%
cAMP antagonism IC50 [3]: 9 nM

B4: AT357 (peptide)
peptide: YSIAMDKIK(C16 diacid)QQDFVNWLLAQK-NH2
modifications: N-terminus assumed
SMILES: CC[C@H](C)[C@H](NC(=O)[C@H](CO)NC(=O)[C@@H](N)Cc1ccc(O)cc1)C(=O)N[C@@H](C)C(=O)N[C@@H](CCSC)C(=O)N[C@@H](CC(=O)O)C(=O)N[C@@H](CCCCN)C(=O)N[C@H](C(=O)N[C@@H](CCCCNC(=O)CCCCCCCCCCCCCCC(=O)O)C(=O)N[C@@H](CCC(N)=O)C(=O)N[C@@H](CCC(N)=O)C(=O)N[C@@H](CC(=O)O)C(=O)N[C@@H](Cc1ccccc1)C(=O)N[C@H](C(=O)N[C@@H](CC(N)=O)C(=O)N[C@@H](Cc1c[nH]c2ccccc12)C(=O)N[C@@H](CC(C)C)C(=O)N[C@@H](CC(C)C)C(=O)N[C@@H](C)C(=O)N[C@@H](CCC(N)=O)C(=O)N[C@@H](CCCCN)C(N)=O)C(C)C)[C@@H](C)CC
cAMP antagonism % inhib [4]: 100%
cAMP antagonism IC50 [4]: 528 nM
cAMP antagonism log IC50 [4]: -6.3 log M
CisBio cAMP agonism % Efficacy [2]: 0%
CisBio cAMP antagonism % inhib [2]: 40%
CisBio cAMP antagonism IC50 [2]: 178 nM
CisBio cAMP antagonism pIC50 [2]: 6.8

B5: AT380 (peptide)
peptide: [pGlu]GTFISDYSIAMDRIK([AEEA-AEEA-AEEA-γGlu-C16 diacid])QQDFVNWLLAQR-NH2
cAMP antagonism IC50 (finer than Table 1B) [1]: 7.3 nM
CisBio cAMP agonism % Efficacy [2]: 8%
CisBio cAMP antagonism % inhib [2]: 82%
CisBio cAMP antagonism IC50 [2]: 85.8 nM
CisBio cAMP antagonism pIC50 [2]: 7.1
DiscoveRx cAMP antagonism % inhib [2]: 100%
DiscoveRx cAMP antagonism IC50 [2]: 7 nM
DiscoveRx cAMP antagonism log IC50 [2]: -8.1 log M

B6: AT257 (peptide)
peptide: GGTFISDYSIAMDRIK(C16 diacid)QQDFVNWLLAQR-OH
modifications: N-terminus assumed
SMILES: CC[C@H](C)[C@H](NC(=O)[C@H](CO)NC(=O)[C@H](Cc1ccc(O)cc1)NC(=O)[C@H](CC(=O)O)NC(=O)[C@H](CO)NC(=O)[C@@H](NC(=O)[C@H](Cc1ccccc1)NC(=O)[C@@H](NC(=O)CNC(=O)CN)[C@@H](C)O)[C@@H](C)CC)C(=O)N[C@@H](C)C(=O)N[C@@H](CCSC)C(=O)N[C@@H](CC(=O)O)C(=O)N[C@@H](CCCNC(=N)N)C(=O)N[C@H](C(=O)N[C@@H](CCCCNC(=O)CCCCCCCCCCCCCCC(=O)O)C(=O)N[C@@H](CCC(N)=O)C(=O)N[C@@H](CCC(N)=O)C(=O)N[C@@H](CC(=O)O)C(=O)N[C@@H](Cc1ccccc1)C(=O)N[C@H](C(=O)N[C@@H](CC(N)=O)C(=O)N[C@@H](Cc1c[nH]c2ccccc12)C(=O)N[C@@H](CC(C)C)C(=O)N[C@@H](CC(C)C)C(=O)N[C@@H](C)C(=O)N[C@@H](CCC(N)=O)C(=O)N[C@@H](CCCNC(=N)N)C(=O)O)C(C)C)[C@@H](C)CC
CisBio cAMP agonism % Efficacy [2]: 5%
CisBio cAMP antagonism % inhib [2]: 80%
CisBio cAMP antagonism IC50 [2]: 136 nM
CisBio cAMP antagonism pIC50 [2]: 6.9
DiscoveRx cAMP agonism Emax [2]: 4
DiscoveRx cAMP antagonism IC50 [2]: 21 nM
DiscoveRx cAMP antagonism log IC50 [2]: -7.7 log M
cAMP antagonism % inhib [5]: 55%
cAMP antagonism IC50 [5]: 5390 nM
cAMP antagonism index [5]: 256
cAMP antagonism log IC50 [5]: -5.3 log M
cAMP antagonism % inhib [6]: 100%
cAMP antagonism IC50 [6]: 15 nM
cAMP antagonism index [6]: 1
CisBio cAMP antagonism % inhib [3]: 80%
CisBio cAMP antagonism IC50 [3]: 136 nM
cAMP antagonism IC50 [3]: 21 nM

B7: AT392 (peptide)
peptide: SGTFISDYSIAMDRIK(C16 diacid)QQDFVNWLLAQR-NH2
modifications: N-terminus assumed
SMILES: CC[C@H](C)[C@H](NC(=O)[C@H](CO)NC(=O)[C@H](Cc1ccc(O)cc1)NC(=O)[C@H](CC(=O)O)NC(=O)[C@H](CO)NC(=O)[C@@H](NC(=O)[C@H](Cc1ccccc1)NC(=O)[C@@H](NC(=O)CNC(=O)[C@@H](N)CO)[C@@H](C)O)[C@@H](C)CC)C(=O)N[C@@H](C)C(=O)N[C@@H](CCSC)C(=O)N[C@@H](CC(=O)O)C(=O)N[C@@H](CCCNC(=N)N)C(=O)N[C@H](C(=O)N[C@@H](CCCCNC(=O)CCCCCCCCCCCCCCC(=O)O)C(=O)N[C@@H](CCC(N)=O)C(=O)N[C@@H](CCC(N)=O)C(=O)N[C@@H](CC(=O)O)C(=O)N[C@@H](Cc1ccccc1)C(=O)N[C@H](C(=O)N[C@@H](CC(N)=O)C(=O)N[C@@H](Cc1c[nH]c2ccccc12)C(=O)N[C@@H](CC(C)C)C(=O)N[C@@H](CC(C)C)C(=O)N[C@@H](C)C(=O)N[C@@H](CCC(N)=O)C(=O)N[C@@H](CCCNC(=N)N)C(N)=O)C(C)C)[C@@H](C)CC
cAMP antagonism IC50 (finer than Table 1B) [1]: 0.6 nM
CisBio cAMP antagonism pIC50 [2]: 7.2
DiscoveRx cAMP antagonism log IC50 [2]: -9.2 log M
CisBio cAMP antagonism % inhib [3]: 96%
CisBio cAMP antagonism IC50 [3]: 68.1 nM
cAMP antagonism % inhib [3]: 93%
cAMP antagonism IC50 [3]: 1 nM

B8: AT277 (peptide)
peptide: SGTFISDYSIAMDRIK([AEEA-AEEA-γGlu-C16 diacid])QQDFVNWLLAQR-OH
modifications: N-terminus assumed
SMILES: CC[C@H](C)[C@H](NC(=O)[C@H](CO)NC(=O)[C@H](Cc1ccc(O)cc1)NC(=O)[C@H](CC(=O)O)NC(=O)[C@H](CO)NC(=O)[C@@H](NC(=O)[C@H](Cc1ccccc1)NC(=O)[C@@H](NC(=O)CNC(=O)[C@@H](N)CO)[C@@H](C)O)[C@@H](C)CC)C(=O)N[C@@H](C)C(=O)N[C@@H](CCSC)C(=O)N[C@@H](CC(=O)O)C(=O)N[C@@H](CCCNC(=N)N)C(=O)N[C@H](C(=O)N[C@@H](CCCCNC(=O)COCCOCCNC(=O)COCCOCCNC(=O)CC[C@H](NC(=O)CCCCCCCCCCCCCCC(=O)O)C(=O)O)C(=O)N[C@@H](CCC(N)=O)C(=O)N[C@@H](CCC(N)=O)C(=O)N[C@@H](CC(=O)O)C(=O)N[C@@H](Cc1ccccc1)C(=O)N[C@H](C(=O)N[C@@H](CC(N)=O)C(=O)N[C@@H](Cc1c[nH]c2ccccc12)C(=O)N[C@@H](CC(C)C)C(=O)N[C@@H](CC(C)C)C(=O)N[C@@H](C)C(=O)N[C@@H](CCC(N)=O)C(=O)N[C@@H](CCCNC(=N)N)C(=O)O)C(C)C)[C@@H](C)CC
CisBio cAMP agonism % Efficacy [2]: 8%
CisBio cAMP antagonism % inhib [2]: 84%
CisBio cAMP antagonism IC50 [2]: 31.6 nM
CisBio cAMP antagonism pIC50 [2]: 7.5
DiscoveRx cAMP agonism Emax [2]: 9
DiscoveRx cAMP antagonism IC50 [2]: 16 nM
DiscoveRx cAMP antagonism log IC50 [2]: -7.8 log M
cAMP antagonism % inhib [5]: 68%
cAMP antagonism IC50 [5]: 6100 nM
cAMP antagonism index [5]: 561
cAMP antagonism log IC50 [5]: -5.2 log M
CisBio cAMP antagonism % inhib [3]: 84%
CisBio cAMP antagonism IC50 [3]: 31.6 nM
cAMP antagonism IC50 [3]: 16 nM
